Patent US20260184777A1 (BEIJING SUNGEN BIOMEDICAL TECHNOLOGY, published 2026)

T1: human S100A8/A9 heterodimeric antigen, His-tagged (hS100A8/A9-His) (human, UniProt P05109 1-93; P06702 1-114)
T1 sequence 1: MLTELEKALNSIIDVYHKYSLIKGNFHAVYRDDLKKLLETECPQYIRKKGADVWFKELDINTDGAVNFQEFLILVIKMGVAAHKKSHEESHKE
T1 sequence 2: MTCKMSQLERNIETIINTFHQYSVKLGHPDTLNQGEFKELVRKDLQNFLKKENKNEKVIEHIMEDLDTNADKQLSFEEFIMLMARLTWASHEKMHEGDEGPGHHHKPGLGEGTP


Molecular target: T1, human S100A8/A9 heterodimeric antigen, …
Assay: cell-based or functional assay

Row | Binder | IC50, inhibition of IL-6 release from hS100A8/A9-activated human PBMCs
1 | CM-11 (antibody, human IgG4 S228P, lambda, V domains shown) VH: not shown VL: SYELTQPPSVSVAPGQTARITCSGDALGDKYASWYQQKPGQAPVLVIYEDSKRPSGIPERFSGSNSGNTATLTISGTQAEDEADYYCQSNDADSVWVFGGGTKLTVLG | 0.038 µg/mL
2 | CM-13 (antibody, human IgG4 S228P, lambda, V domains shown) VH: not shown VL: SYELTQPPSVSVAPGQTARITCSGDALGDKYASWYQQKPGQAPVLVIYEDSKRPSGIPERFSGSNSGNTATLTISGTQAEDEADYYCQSNDADSVWVFGGGTKLTVLG | 0.047 µg/mL
3 | CM-9 (antibody, human IgG4 S228P, lambda, V domains shown) VH: not shown VL: SYELTQPPSVSVAPGQTARITCSGDALGDKYASWYQQKPGQAPVLVIYEDSKRPSGIPERFSGSNSGNTATLTISGTQAEDEADYYCQSNDADSVWVFGGGTKLTVLG | 1.56 µg/mL
4 | CM-12 (antibody, human IgG4 S228P, lambda, V domains shown) VH: not shown VL: SYELTQPPSVSVAPGQTARITCSGDALGDKYASWYQQKPGQAPVLVIYEDSKRPSGIPERFSGSNSGNTATLTISGTQAEDEADYYCQSNDADSVWVFGGGTKLTVLG | 0.047 µg/mL
5 | CM-8 (antibody, human IgG4 S228P, lambda, V domains shown) VH: not shown VL: SYELTQPPSVSVAPGQTARITCSGDALGDKYASWYQQKPGQAPVLVIYEDSKRPSGIPERFSGSNSGNTATLTISGTQAEDEADYYCQSNDADSVWVFGGGTKLTVLG | 0.458 µg/mL
6 | CM-10 (antibody, human IgG4 S228P, lambda, V domains shown) VH: not shown VL: SYELTQPPSVSVAPGQTARITCSGDALGDKYASWYQQKPGQAPVLVIYEDSKRPSGIPERFSGSNSGNTATLTISGTQAEDEADYYCQSNDADSVWVFGGGTKLTVLG | 0.438 µg/mL
7 | CM-6 (antibody, human IgG4 S228P, lambda, V domains shown) VH: not shown VL: SYELTQPPSVSVAPGQTARITCSGDALGDKYASWYQQKPGQAPVLVIYEDSKRPSGIPERFSGSNSGNTATLTISGTQAEDEADYYCQSNDADSVWVFGGGTKLTVLG | 0.488 µg/mL
8 | CM-4 (antibody, human IgG4 S228P, lambda, V domains shown) VH: not shown VL: SYELTQPPSVSVAPGQTARITCSGDALGDKYASWYQQKPGQAPVLVIYEDSKRPSGIPERFSGSNSGNTATLTISGTQAEDEADYYCQSNDADSVWVFGGGTKLTVLG | 0.04 µg/mL
9 | CM-14 (antibody, human IgG4 S228P, lambda, V domains shown) VH: not shown VL: SYELTQPPSVSVAPGQTARITCSGDALGDKYASWYQQKPGQAPVLVIYEDSKRPSGIPERFSGSNSGNTATLTISGTQAEDEADYYCQSNDADSVWVFGGGTKLTVLG | 2.79 µg/mL

The next lines start with the values.

Row | IC50, inhibition of IL-6 release from hS100A8/A9-activated human PBMCs | Binder
10 | 0.199 µg/mL | CM-2 (antibody, human IgG4 S228P, lambda, V domains shown) VH: not shown VL: SYELTQPPSVSVAPGQTARITCSGDALGDKYASWYQQKPGQAPVLVIYEDSKRPSGIPERFSGSNSGNTATLTISGTQAEDEADYYCQSNDADSVWVFGGGTKLTVLG
11 | 0.436 µg/mL | CM-5 (antibody, human IgG4 S228P, lambda, V domains shown) VH: not shown VL: SYELTQPPSVSVAPGQTARITCSGDALGDKYASWYQQKPGQAPVLVIYEDSKRPSGIPERFSGSNSGNTATLTISGTQAEDEADYYCQSNDADSVWVFGGGTKLTVLG
12 | 0.029 µg/mL | CM-3 (antibody, human IgG4 S228P, lambda, V domains shown) VH: not shown VL: SYELTQPPSVSVAPGQTARITCSGDALGDKYASWYQQKPGQAPVLVIYEDSKRPSGIPERFSGSNSGNTATLTISGTQAEDEADYYCQSNDADSVWVFGGGTKLTVLG
13 | 0.12 µg/mL | CM-7 (antibody, human IgG4 S228P, lambda, V domains shown) VH: not shown VL: SYELTQPPSVSVAPGQTARITCSGDALGDKYASWYQQKPGQAPVLVIYEDSKRPSGIPERFSGSNSGNTATLTISGTQAEDEADYYCQSNDADSVWVFGGGTKLTVLG
